What was measured:
[1] = molecular target: T1, human recombinant RXRB protein (Homo sapiens, UniProt P28702); experiment: Binding of FAM-peptide to protein immobilized on a plate; conditions: 1 μM, room temperature, 1 h, fluorescence
T1 sequence (P28702 1-533): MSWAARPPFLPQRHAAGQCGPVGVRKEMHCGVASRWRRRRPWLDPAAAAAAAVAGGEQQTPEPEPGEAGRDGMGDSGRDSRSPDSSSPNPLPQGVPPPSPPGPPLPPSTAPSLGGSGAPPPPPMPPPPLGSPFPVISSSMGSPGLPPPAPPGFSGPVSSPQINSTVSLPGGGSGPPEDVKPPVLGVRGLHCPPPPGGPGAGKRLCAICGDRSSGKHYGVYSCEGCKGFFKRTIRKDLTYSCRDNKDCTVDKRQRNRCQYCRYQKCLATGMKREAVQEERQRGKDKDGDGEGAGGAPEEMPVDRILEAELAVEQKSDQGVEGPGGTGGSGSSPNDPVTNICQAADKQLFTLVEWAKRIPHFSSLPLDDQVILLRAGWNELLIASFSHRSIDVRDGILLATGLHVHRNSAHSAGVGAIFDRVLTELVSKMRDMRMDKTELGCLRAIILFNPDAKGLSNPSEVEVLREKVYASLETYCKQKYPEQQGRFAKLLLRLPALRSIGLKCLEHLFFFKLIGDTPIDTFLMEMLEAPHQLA
Description: (§1) To confirm RXRB binds CRV, the binding of FAM-CRV to human recombinant RXRB protein immobilized on a plate was tested. Human RXRB recombinant protein (50 μL, 5 μg/mL) was immobilized in high binding 96-well plate at 4° C. overnight. Bovine serum albumin was used as the control protein. The protein solution was removed and washed one time with PBS. 1% BSA in PBS solution was then added to the wells and incubated at room temperature for 1 h to block the rest available binding sites. After one wash with PBS, RXRB and BSA were incubated with FAM-CRV (100 μL, 1 μM) at room temperature for 1 h. The wells were washed three times with PBS and the fluorescence was measured using a multiplate reader.

[2] = molecular target: Bovine serum albumin (Bos taurus, UniProt P02769); experiment: Binding of FAM-peptide to control protein immobilized on a plate; conditions: 1 μM, room temperature, 1 h, fluorescence
Sequence of Bovine serum albumin (P02769 25-607): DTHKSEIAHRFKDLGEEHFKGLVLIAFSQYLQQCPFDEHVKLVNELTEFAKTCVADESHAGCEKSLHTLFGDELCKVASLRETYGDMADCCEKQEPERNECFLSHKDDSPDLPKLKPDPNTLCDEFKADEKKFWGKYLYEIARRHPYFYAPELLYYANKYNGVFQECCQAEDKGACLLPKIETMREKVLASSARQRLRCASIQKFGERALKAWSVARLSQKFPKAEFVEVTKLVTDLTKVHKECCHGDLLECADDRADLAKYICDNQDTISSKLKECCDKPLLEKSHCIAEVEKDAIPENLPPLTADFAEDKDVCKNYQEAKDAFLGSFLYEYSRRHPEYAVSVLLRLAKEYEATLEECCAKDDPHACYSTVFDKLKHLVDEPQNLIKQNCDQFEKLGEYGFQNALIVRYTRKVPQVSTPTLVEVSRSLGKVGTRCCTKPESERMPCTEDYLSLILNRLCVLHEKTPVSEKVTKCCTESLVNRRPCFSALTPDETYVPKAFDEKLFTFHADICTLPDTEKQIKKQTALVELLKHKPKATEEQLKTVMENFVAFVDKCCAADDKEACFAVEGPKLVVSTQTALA
Description: as §1

[3] = tested on: cells isolated from tumors, spleen, liver, and blood from the 4T1 tumor mice; experiment: Ex vivo binding to cells isolated from organs of 4T1 mice, flow cytometry; format: cell-based, mouse; conditions: 4T1 model, 4° C., 1 h
Description: Mice with tumor size about 8 mm were euthanized under deep anesthesia (Avertin, lack of response to a toe pinch) by cervical dislocation. Target (tumor) and control (e.g., liver, spleen) tissues were collected and further dissociated to single cells. Tumor cells were dissociated using MACS tumor dissociation kit. Cells were then incubated with fluorescent-labeled CRV or other cell markers (CD11b, CD68, F4/80, FAB, EpCAM, CD31) at 4° C. for 1 h. Positive cells were quantified on BD LSRFORTESSA and data were analyzed using FCS Express Version 3 (De Novo Software).

[4] = tested on: 4T1 tumors; experiment: Immunofluorescence staining of tissues for FAM-peptide and CD31 at different homing time points; format: in vivo, mouse; conditions: 4T1 orthotopic tumor-bearing mice, i.v.
Description: FAM-CRV was intravenously injected into tumor bearing mice. To this end, 4T1 […] breast cancer cells were cultured in Dulbecco's modified Eagle's medium supplemented with 10% fetal bovine serum, 100 U/mL penicillin and 100 μg/mL streptomycin. The […] cell line was authenticated by the DNA Analysis Core Facility at the Sanford Burnham Prebys Medical Discovery Institute (La Jolla, Calif.) and tested negative for mycoplasma contamination. To produce 4T1 tumors, 1×10^6 tumor cells (suspended in 100 μL of PBS) were orthotopically injected into the mammary fat pad of normal BALB/c mice. All animal experimentation received approval from the Animal Research Committee of Sanford Burnham Prebys Medical Discovery Institute. Biodistribution of fluorescein-conjugated peptides (FAM-CRV, FAM-GGS, or FAM-ARA) was examined after intravenous injection of 100 μL peptide solution (1 mg/mL PBS) into the tail vein of a mouse. […] Tissues were collected, fixed with 4% formaldehyde buffer solution and then soaked in 30% sucrose in PBS overnight. Tissues were finally frozen in OCT embedding medium (Tissue-Tek), and sliced for immunofluorescence staining. Tissue sections were blocked in 1% bovine serum albumin with 0.1% Triton X-100 for 1 h, and incubated with appropriate primary antibodies and second antibodies. […]

| Sequence | binding to immobilized RXRB compared to control peptide FAM-GGS [1] | binding to control protein BSA [2] | specific labelling of macrophages in the tumor (ex vivo) [3] | fluorescence signal in the tumors at homing time points 5, 15, and 60 min [4] |
| --- | --- | --- | --- | --- |
| CRVLRSGSC [cyclic macrophage-targeting peptide] | significantly higher binding | neither peptide bound | – | – |
| GGSGGSKG [FAM-GGS, FAM-labeled control peptide] | – | neither peptide bound | could not specifically label macrophages | no fluorescence signals |

— patent publication US20210299212A1, “BINDNG MOLECULES TO TUMOR ASSOCIATED MACROPHAGES AND METHODS OF USE” (Sanford Burnham Prebys Medical Discovery Institute, priority 2018, published 2021)
